Measured values taken from US20190065668A1 (published 2019).
Square brackets hold non-standard residues; d marks the D form. * marks the point of attachment. Sta = CC(C)C[C@H](N)[C@@H](O)CC(=O)O; NHPhenethyl = c1ccc(CCN*)cc1; Cbz = O=C(OCc1ccccc1)*

Tests used:
[1] = target: recombinant P. falciparum plasmepsin V (residues N80-R528) (Plasmodium falciparum, UniProt Q8I6Z5 80-528); assay: cell-based or functional assay
[2] = target: plasmepsin V in P. falciparum parasites (endogenous enzyme in trophozoites expressing PfEMP3-GFP) (Plasmodium falciparum, UniProt Q8I6Z5 1-590); assay: cell-based or functional assay
plasmepsin V in P. falciparum parasites (endogenous enzyme in trophozoites expressing PfEMP3-GFP), sequence (Q8I6Z5 whole entry): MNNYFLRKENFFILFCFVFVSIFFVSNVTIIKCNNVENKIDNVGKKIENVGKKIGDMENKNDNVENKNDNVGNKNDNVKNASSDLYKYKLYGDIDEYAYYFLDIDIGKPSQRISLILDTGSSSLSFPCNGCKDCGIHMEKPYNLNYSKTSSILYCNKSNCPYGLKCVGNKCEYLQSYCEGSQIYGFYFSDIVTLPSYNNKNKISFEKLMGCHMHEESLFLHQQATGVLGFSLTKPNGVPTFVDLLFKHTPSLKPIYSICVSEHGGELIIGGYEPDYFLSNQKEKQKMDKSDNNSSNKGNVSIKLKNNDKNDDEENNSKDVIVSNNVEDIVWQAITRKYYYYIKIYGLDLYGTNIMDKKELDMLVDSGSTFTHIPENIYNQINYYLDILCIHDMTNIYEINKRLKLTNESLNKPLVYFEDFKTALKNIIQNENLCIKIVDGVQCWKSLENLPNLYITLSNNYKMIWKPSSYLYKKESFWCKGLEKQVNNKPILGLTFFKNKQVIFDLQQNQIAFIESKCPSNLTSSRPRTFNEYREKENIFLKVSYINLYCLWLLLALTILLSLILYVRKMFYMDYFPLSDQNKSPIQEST

recombinant P. falciparum plasmepsin V (residues N80-R528), sequence (Q8I6Z5 80-528): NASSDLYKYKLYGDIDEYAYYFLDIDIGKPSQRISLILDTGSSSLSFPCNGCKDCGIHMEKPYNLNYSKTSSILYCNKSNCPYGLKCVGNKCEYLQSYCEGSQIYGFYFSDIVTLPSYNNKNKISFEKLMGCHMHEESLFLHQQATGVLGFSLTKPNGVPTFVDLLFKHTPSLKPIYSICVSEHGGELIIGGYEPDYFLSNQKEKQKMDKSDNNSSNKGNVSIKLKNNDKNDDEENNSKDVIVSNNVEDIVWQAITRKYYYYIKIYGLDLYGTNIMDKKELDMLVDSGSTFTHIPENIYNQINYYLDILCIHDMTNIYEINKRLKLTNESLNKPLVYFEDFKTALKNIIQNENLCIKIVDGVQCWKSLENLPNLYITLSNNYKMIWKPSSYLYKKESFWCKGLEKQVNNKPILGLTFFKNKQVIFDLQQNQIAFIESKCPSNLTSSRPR

B1: WEHI-842, Cbz-Cav(NH2)-Val-Sta-NH(CH2)2Ph.TFA (peptide)
peptide: Cbz-X-Val-[Sta]-NHPhenethyl
modifications: not fully specified (residue 1); printed as Cbz-Cav(NH2)-Val-Sta-NH(CH2)2Ph; also: TFA salt
B1 was tested, and the “IC50, inhibition of cleavage of the fluorogenic KAHRP PEXEL peptide” value [1] was 0.79 nM, the “inhibition of PEXEL processing of PfEMP3-GFP in parasites, immunoblot, fold against WEHI-916” value [2] was 10 fold and the “inhibition of PfEMP3-GFP PEXEL cleavage in parasites, radiolabelling and densitometry, fold against WEHI-916” value [2] was 10 fold.
